# Publication PMC2645378 (Virology Journal, 2008)
# “And” between values parts separate entries of the source, which are not always exact repeats. Identical values can stand only once.
# Target: the molecule itself
protein,measurement,value
FLAG-tagged soluble Lassa virus glycoprotein 1 (sGP1-FLAG) (natural protein) TSLYKGVYELQTLELNMETLNMTMPLSCTKNNSHHYIMVGNETGLELTLTNTSIINHKFCNLSDAHKKNLYDHALMSIISTFHLSIPNFNQYEAMSCDFNGGKISVQYNLSHSYAGDAANHCGTVANGVLQTFMRMAWGGSYIALDSGRGNWDCIMTSYQYLIIQNTTWEDHCQFSRPSPIGYLGLLSQRTRDIYISRRLL,stoichiometry N,2 and 3
